Measured values reported in patent US20210355205A1 (published 2021).
Where a chain is given by its changes, count along the chain named.

Experiments:
[1] = target: recombinant human IL-5 (human, UniProt P05113 20-134); test: Biacore, Ab on Protein A chip
[2] = target: recombinant human IL-5 (human, UniProt P05113 20-134); test: Biacore
[3] = target: Cynomolgus IL-5 (cynomolgus monkey); test: cell-based or functional assay

B1: 3A5.211 (antibody, human IgG4 S228P, lambda, name in Kabat numbering, V domains shown)
VH: QVQLQESGPGLVKPSQTLSLTCTVSGGSISNGGYYWSWIRQHPGKGLEWIGYIYYSGSTYYNPSLKSRVTISVDTSKNQFSLKLSSVTAADTAVYYCASLGNWFDYWGQGTLVTVSS
VL: SYVLTQPPSVSVAPGQTARITCGGNNIGSKNVYWYQQKPGQAPVLVVHDDSDRPSGIPERFSGSNSGNTATLTISRVEVGDEADYSCQAWDSSSDHVVFGGGTKLTVLG
- proportional kd vs parent 3A5.040 [1]: 1 ratio

B2: 3A5.508 (antibody, human IgG4 S228P, lambda, name in Kabat numbering, V domains shown)
VH: B1 VH with G101A
VL: B1 VL with A89V
- proportional kd vs parent 3A5.040 [2]: 0.8

B3: 3A5.046 (antibody, human IgG4 S228P, lambda)
heavy: QVQLQESGPGLVKPSQTLSLTCTVSGGSISNGGYYWSWIRQHPGKGLEWIGYIYYSGSTYYNPSLKSRVTISVDTSKNQFSLKLSSVTAADTAVYYCASLGNWFDYWGQGTLVTVSSASTKGPSVFPLAPCSRSTSESTAALGCLVKDYFPEPVTVSWNSGALTSGVHTFPAVLQSSGLYSLSSVVTVPSSSLGTKTYTCNVDHKPSNTKVDKRVESKYGPPCPPCPAPEFLGGPSVFLFPPKPKDTLYITREPEVTCVVVDVSQEDPEVQFNWYVDGVEVHNAKTKPREEQFNSTYRVVSVLTVLHQDWLNGKEYKCKVSNKGLPSSIEKTISKAKGQPREPQVYTLPPSQEEMTKNQVSLTCLVKGFYPSDIAVEWESNGQPENNYKTTPPVLDSDGSFFLYSRLTVDKSRWQEGNVFSCSVMHEALHNHYTQKSLSLSLG
light: SYVLTQPPSVSVAPGQTARITCGGNNIGSKNVYWYQQKPGQAPVLVVHDDSDRPSGIPERFSGSNSGNTATLTISRVEVGDEADYSCQVWDSSSDHVVFGGGTKLTVLGQPKAAPSVTLFPPSSEELQANKATLVCLISDFYPGAVTVAWKADSSPVKAGVETTTPSKQSNNKYAASSYLSLTPEQWKSHRSYSCQVTHEGSTVEKTVAPTECS
- Mean (pM): mean IC50, TF-1.6G4 cell line proliferation assay [3]: 43.8 pM
